{
  "source": "patent US20090075921A1",
  "about": "“Bone/joint disease sensitivity gene and use thereof” (Riken, priority 2004, published 2009)",
  "key": {"ATDC5 cells": {"tested_on": "ATDC5 cells", "experiment": "MTT assay of ATDC5 cell growth", "format": "cell-based, mouse", "conditions": "added alone, medium 1-2", "method": "ATDC5 was inoculated to a 12-well plate at 0.4×10^5 cells/well, and cultured using the medium 1-2 described in Example 19 for 24 hours, after which asporin and bFGF were added, and MTT assay was performed over time as described below. Specifically, the medium was removed by suction, the 1 mg/ml MTT reagent (DOJINDO) dissolved in DMEM/F12 was added at 1 ml/well, and the plate was incubated in a CO2 incubator for 1 hour. The supernatant was removed by suction, a Lysis reagent (86% isopropanol, 40 mM HCl, 1% SDS) was added to the plate at 0.2 ml/well, and extraction was performed at room temperature for 5 minutes. This extract was transferred to a 96-well plate, and OD550 was measured using a plate reader."}, "TGF-β1": {"target": "TGF-β1 (Homo sapiens, UniProt P01137)", "sequence (P01137 279-390 limits assumed, species assumed)": "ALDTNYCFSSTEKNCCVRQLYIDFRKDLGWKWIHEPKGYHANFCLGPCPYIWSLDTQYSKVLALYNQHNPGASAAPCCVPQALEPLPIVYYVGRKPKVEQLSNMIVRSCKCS", "experiment": "Binding assay of asporin and TGF-β by pull-down assay method", "conditions": "S-Protein agarose precipitate, Western blotting", "method": "With the pET29b-ASP13 and pET29b-ASP14 thus prepared as the templates, S-tagged human asporin D13 and D14 were prepared by performing a reaction in the presence of Transcend™ Biotin-Lysyl-tRNA using TNT Quick Coupled Transcription/Translation Systems (Promega). A reaction mixture comprising S-tagged human asporin D13 or D14 (10 μl) and TGF-β1 (0.1 μg) were mixed in buffer A (50 mM Tris (pH 7.5), 150 mM NaCl, 1% Triton X-100, complete protease inhibitor cocktail tablets (Roche)) at 4° C. for 1 hour, S-Protein agarose (Novagen, 12.5 μl) was added, and the mixture was further incubated at room temperature for 30 minutes. The precipitated resin was washed with buffer A five times, after which SDS-PAGE was performed under reducing conditions. S-tagged human asporin in the precipitate was detected by Western blotting using streptavidin-HRP (R&D Systems), and TGF-β1 was detected by Western blotting using biotinylated anti-TGF-β1 antibody (Genzyme). As a result of an examination of the binding of human asporin and TGF-β by the method described above, a band of TGF-β1 was detected in the precipitate comprising S-tagged human asporin D13 or D14 (FIG. 17).\nUsing the recombinant mouse asporin purified by the method described in Example 31, its capability of binding with TGF-β1 was examined by the method described in Example 22 (pull-down assay method); as a result, it was confirmed that TGF-β1 was detected in the precipitate of purified mouse asporin (FIG. 26)."}, "type II collagen": {"tested_on": "type II collagen", "sequence (P02458 182-1241 limits assumed)": "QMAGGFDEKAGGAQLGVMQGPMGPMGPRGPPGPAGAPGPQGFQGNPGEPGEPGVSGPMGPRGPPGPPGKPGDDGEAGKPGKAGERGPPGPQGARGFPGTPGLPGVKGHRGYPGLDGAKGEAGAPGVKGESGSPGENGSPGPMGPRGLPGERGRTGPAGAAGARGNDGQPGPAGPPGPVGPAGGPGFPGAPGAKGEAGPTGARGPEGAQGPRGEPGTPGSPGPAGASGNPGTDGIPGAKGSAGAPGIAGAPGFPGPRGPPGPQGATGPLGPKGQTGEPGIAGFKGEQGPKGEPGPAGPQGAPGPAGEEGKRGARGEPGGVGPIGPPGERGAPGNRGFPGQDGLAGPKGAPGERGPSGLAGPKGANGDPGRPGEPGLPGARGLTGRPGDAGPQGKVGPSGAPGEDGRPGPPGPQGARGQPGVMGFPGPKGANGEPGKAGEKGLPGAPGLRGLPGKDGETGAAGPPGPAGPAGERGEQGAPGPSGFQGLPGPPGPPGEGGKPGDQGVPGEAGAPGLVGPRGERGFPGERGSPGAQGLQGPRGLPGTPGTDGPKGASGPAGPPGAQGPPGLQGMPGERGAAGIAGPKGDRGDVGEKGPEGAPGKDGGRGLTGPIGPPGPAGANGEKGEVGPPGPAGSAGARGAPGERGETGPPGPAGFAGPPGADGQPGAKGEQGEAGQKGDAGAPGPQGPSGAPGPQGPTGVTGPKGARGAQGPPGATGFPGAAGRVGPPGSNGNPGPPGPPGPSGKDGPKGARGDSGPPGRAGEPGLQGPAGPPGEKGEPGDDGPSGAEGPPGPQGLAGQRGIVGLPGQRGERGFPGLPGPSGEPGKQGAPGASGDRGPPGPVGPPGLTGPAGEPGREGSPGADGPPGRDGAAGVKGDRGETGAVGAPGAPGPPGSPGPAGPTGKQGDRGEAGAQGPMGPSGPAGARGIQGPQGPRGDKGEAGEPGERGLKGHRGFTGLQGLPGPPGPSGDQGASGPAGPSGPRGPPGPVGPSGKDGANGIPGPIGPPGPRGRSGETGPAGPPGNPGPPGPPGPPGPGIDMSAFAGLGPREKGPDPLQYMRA", "experiment": "Binding assay of asporin and collagen (type II)", "conditions": "37° C., 5 hours, precipitate, Western blotting", "method": "(§1) A binding assay of asporin and collagen was performed by the method described below. As a collagen an acid-soluble type II collagen solution (KOKEN, 3 mg/ml) and an acid-soluble type I collagen solution (1-C: Nitta Gelatin Inc., 3 mg/ml) were used. A reaction mixture comprising 5 μl of an acid-soluble collagen solution (3 mg/ml), 5 μl of an S-tagged human asporin reaction mixture prepared by the method described in Example, and 90 μl of PBS, was prepared, and incubated at 37° C. for 5 hours. This reaction mixture was centrifuged (10,000 rpm, 5 minutes, 4° C.), after which the precipitate was washed with PBS three times. The washed precipitate was dissolved in 20 μl of a sample buffer (comprising 1 μl of 2-mercaptoethanol), after which SDS-PAGE was performed, and Western blotting was performed using streptavidin-HRP. As a result, S-tagged human asporin D13 and D14 bound to both type II collagen and type I collagen (FIG. 21a)."}, "type I collagen": {"target": "T1, type I collagen (Homo sapiens, UniProt P02452+P08123)", "T1 construct": "purchased Nitta Gelatin Inc. 1-C", "T1 sequence (P02452 162-1218 limits assumed)": "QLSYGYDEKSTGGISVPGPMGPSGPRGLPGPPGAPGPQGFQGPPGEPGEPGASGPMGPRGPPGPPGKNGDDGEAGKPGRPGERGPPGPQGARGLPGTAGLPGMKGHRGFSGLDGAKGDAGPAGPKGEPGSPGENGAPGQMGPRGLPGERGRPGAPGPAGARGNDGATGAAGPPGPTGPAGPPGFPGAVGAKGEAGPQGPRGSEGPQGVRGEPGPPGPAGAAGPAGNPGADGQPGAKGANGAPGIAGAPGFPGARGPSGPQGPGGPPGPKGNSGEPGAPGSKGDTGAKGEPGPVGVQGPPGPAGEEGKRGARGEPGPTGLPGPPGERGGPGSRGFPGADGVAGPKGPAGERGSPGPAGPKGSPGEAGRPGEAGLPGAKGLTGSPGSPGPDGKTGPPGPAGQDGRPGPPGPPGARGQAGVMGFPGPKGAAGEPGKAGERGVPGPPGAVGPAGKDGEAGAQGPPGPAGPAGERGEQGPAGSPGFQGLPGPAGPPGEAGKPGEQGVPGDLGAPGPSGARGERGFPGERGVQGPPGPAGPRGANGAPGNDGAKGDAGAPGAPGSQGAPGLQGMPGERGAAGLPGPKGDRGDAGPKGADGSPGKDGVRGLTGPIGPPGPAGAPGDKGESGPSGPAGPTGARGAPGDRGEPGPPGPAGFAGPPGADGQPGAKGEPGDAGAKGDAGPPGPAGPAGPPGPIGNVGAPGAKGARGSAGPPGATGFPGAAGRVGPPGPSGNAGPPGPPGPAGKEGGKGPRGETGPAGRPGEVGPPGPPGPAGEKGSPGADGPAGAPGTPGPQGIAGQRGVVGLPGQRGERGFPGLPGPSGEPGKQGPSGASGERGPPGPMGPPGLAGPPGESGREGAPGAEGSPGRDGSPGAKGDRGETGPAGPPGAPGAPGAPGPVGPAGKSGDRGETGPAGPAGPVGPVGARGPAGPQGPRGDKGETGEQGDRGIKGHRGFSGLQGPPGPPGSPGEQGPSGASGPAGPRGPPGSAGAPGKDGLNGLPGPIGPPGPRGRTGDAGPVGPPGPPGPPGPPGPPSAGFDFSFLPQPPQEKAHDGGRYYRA", "T1 sequence (P08123 80-1119 limits assumed)": "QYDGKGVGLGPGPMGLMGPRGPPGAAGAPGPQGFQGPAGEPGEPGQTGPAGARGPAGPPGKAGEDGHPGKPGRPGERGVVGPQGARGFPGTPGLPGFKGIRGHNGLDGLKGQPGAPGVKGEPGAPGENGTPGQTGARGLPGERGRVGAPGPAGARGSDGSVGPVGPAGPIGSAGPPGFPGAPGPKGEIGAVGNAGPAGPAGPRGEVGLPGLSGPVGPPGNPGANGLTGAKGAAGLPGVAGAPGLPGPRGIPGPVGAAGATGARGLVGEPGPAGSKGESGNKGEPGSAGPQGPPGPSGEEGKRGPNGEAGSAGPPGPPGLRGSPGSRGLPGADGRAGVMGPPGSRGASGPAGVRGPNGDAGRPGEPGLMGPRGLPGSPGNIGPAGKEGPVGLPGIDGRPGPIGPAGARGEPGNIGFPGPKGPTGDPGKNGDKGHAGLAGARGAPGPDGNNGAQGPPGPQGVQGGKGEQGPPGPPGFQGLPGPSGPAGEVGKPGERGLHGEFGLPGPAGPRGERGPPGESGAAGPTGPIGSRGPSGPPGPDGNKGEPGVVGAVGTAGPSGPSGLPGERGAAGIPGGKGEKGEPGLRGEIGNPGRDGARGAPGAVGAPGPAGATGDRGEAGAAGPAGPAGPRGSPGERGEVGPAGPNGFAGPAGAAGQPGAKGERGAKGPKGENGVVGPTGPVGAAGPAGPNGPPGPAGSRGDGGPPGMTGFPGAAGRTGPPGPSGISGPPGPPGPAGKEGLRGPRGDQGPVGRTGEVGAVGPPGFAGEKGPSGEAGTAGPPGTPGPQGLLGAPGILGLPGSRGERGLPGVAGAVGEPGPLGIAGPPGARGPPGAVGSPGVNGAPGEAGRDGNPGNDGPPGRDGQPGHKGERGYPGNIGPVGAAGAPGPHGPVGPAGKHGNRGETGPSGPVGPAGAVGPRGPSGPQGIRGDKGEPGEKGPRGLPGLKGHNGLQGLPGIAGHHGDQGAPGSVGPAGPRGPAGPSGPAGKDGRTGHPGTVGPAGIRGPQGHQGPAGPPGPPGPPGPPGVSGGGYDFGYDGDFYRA", "experiment": "Binding assay of asporin and collagen (type I)", "conditions": "37° C., 5 hours, precipitate, Western blotting", "method": "as §1"}, "[1]": {"tested_on": "ATDC5 cell lines that transiently express human asporin", "experiment": "TGF-β1-stimulated aggrecan and type II collagen gene expression in ATDC5 transiently expressing human asporin", "format": "cell-based, mouse", "conditions": "transient expression", "method": "ATDC5 cells were inoculated to a 12-well plate at 0.5×10^5 cells/well, and cultured in a medium 1-2 (DMEM/F12 medium containing 5% FBS, ITS (Sigma), penicillin (100 U/ml) and streptomycin (100 μg/ml)). 24 hours later, pcDNA3.1-ASP13 or pcDNA3.1-ASP14 were introduced using FuGENE-6 (Roche), and the cells were cultured for 24 hours. Next, the medium was exchanged with a medium 1-2 containing 0.2% FBS, and the cells were cultured for 12 hours, after which TGF-β1 (10 ng/ml) was added, and the cells were further cultured for 18 hours, after which total RNA extraction, purification, cDNA synthesis, and real-time PCR were performed in the same manner as Example 18. As a result, the elevation of the TGF-β1-stimulated expression levels of the aggrecan and type II collagen genes was suppressed in the ATDC5 cells allowed to transiently express human asporin D13 or D14 compared to mock (FIG. 14).\nFirst, the expression level of the aggrecan gene elevated by TGF-β1 stimulation in mock is written as (AM), and the expression level of the type II collagen gene at the same time is written as (CM). Next, the TGF-β1-stimulated aggrecan gene expression level suppressed by the forced expression of asporin D13 is written as (A13), and the type II collagen gene expression level at the same time is written as (C13). […] Thus, the suppression rate of the TGF-β1-stimulated aggrecan gene expression in the asporin D13 expressing line can be expressed as (A13)/(AM), and the suppression rate of the type II collagen gene expression as (C13)/(CM). Likewise, the suppression rate of the TGF-β1-stimulated aggrecan gene expression in the asporin D14 expressing line can be expressed as (A14)/(AM), and the suppression rate of the type II collagen gene expression as (C14)/(CM). Furthermore, by making a correction by dividing these values by the human asporin mRNA content obtained with TGF-β1 stimulation, the suppression rate of the aggrecan and type II collagen gene expression per human asporin mRNA content were calculated. […]"}},
  "data": [
    {"molecule": "bFGF: growth factor added to ATDC5 cells and coated on microplate [reference compound]", "values": [
      {"measurement": "growth of ATDC5 cells (MTT, OD550)", "setting": "ATDC5 cells", "value": "suppressed the growth of ATDC5 cells concentration-dependently"}
    ]},
    {"molecule": "S-tagged human asporin D13: mature S-tagged human asporin D13 synthesized cell-free from pET29b-ASP13, lysines biotinylated (protein, left off: small tags and cut ends, mature S-tagged human asporin D13 synthesized cell-free from pET29b-ASP13, lysines biotinylated) DMEDTDDDDDDDDDDDDDEDNSLFPTREPRSHFFPFDLFPMCPFGCQCYSRVVHCSDLGLTSVPTNIPFDTRMLDLQNNKIKEIKENDFKGLTSLYGLILNNNKLTKIHPKAFLTTKKLRRLYLSHNQLSEIPLNLPKSLAELRIHENKVKKIQKDTFKGMNALHVLEMSANPLDNNGIEPGAFEGVTVFHIRIAEAKLTSVPKGLPPTLLELHLDYNKISTVELEDFKRYKELQRLGLGNNKITDIENGSLANIPRVREIHLENNKLKKIPSGLPELKYLQIIFLHSNSIARVGVNDFCPTVPKMKKSLYSAISLFNNPVKYWEMQPATFRCVLSRMSVQLGNFGM", "values": [
      {"measurement": "binding to TGF-β1 (pull-down)", "setting": "TGF-β1", "value": "bound to TGF-β1 in vitro"},
      {"measurement": "binding to type II collagen", "setting": "type II collagen", "value": "bound"},
      {"measurement": "binding to type I collagen", "setting": "type I collagen", "value": "bound"}
    ]},
    {"molecule": "D16: asporin having D-repeat number of 16, transiently expressed (protein) AKPFFSPSHIALKNMMLKDMEDTDDDDDDDDDDDDDDEDNSLFPTREPRSHFFPFDLFPMCPFGCQCYSRVVHCSDLGLTSVPTNIPFDTRMLDLQNNKIKEIKENDFKGLTSLYGLILNNNKLTKIHPKAFLTTKKLRRLYLSHNQLSEIPLNLPKSLAELRIHENKVKKIQKDTFKGMNALHVLEMSANPLDNNGIEPGAFEGVTVFHIRIAEAKLTSVPKGLPPTLLELHLDYNKISTVELEDFKRYKELQRLGLGNNKITDIENGSLANIPRVREIHLENNKLKKIPSGLPELKYLQIIFLHSNSIARVGVNDFCPTVPKMKKSLYSAISLFNNPVKYWEMQPATFRCVLSRMSVQLGNFGM", "values": [
      {"measurement": "suppressive action on the TGF-β1-stimulated expression of COL2A1 compared with D14", "setting": "[1]", "value": "significantly weaker than that of D14"}
    ]},
    {"molecule": "D17: asporin having D-repeat number of 17, transiently expressed (protein) AKPFFSPSHIALKNMMLKDMEDTDDDDDDDDDDDDDDEDNSLFPTREPRSHFFPFDLFPMCPFGCQCYSRVVHCSDLGLTSVPTNIPFDTRMLDLQNNKIKEIKENDFKGLTSLYGLILNNNKLTKIHPKAFLTTKKLRRLYLSHNQLSEIPLNLPKSLAELRIHENKVKKIQKDTFKGMNALHVLEMSANPLDNNGIEPGAFEGVTVFHIRIAEAKLTSVPKGLPPTLLELHLDYNKISTVELEDFKRYKELQRLGLGNNKITDIENGSLANIPRVREIHLENNKLKKIPSGLPELKYLQIIFLHSNSIARVGVNDFCPTVPKMKKSLYSAISLFNNPVKYWEMQPATFRCVLSRMSVQLGNFGM", "values": [
      {"measurement": "suppressive action on the TGF-β1-stimulated expression of COL2A1 compared with D14", "setting": "[1]", "value": "significantly weaker than that of D14"}
    ]},
    {"molecule": "biglycan: SLRP family proteoglycan used as the negative control for collagen binding (protein, UniProt P21810 38-368, looked up) Biglycan: DEEASGADTSGVLDPDSVTPTYSAMCPFGCHCHLRVVQCSDLGLKSVPKEISPDTTLLDLQNNDISELRKDDFKGLQHLYALVLVNNKISKIHEKAFSPLRKLQKLYISKNHLVEIPPNLPSSLVELRIHDNRIRKVPKGVFSGLRNMNCIEMGGNPLENSGFEPGAFDGLKLNYLRISEAKLTGIPKDLPETLNELHLDHNKIQAIELEDLLRYSKLYRLGLGHNQIRMIENGSLSFLPTLRELHLDNNKLARVPSGLPDLKLLQVVYLHSNNITKVGVNDFCPMGFGVKRAYYNGISLFNNPVPYWEVQPATFRCVTDRLAIQFGNYKK", "values": [
      {"measurement": "binding to type II collagen", "setting": "type II collagen", "value": "did not bind"},
      {"measurement": "binding to type I collagen", "setting": "type I collagen", "value": "did not bind"}
    ]},
    {"molecule": "S-tagged human asporin D14: mature S-tagged human asporin D14 synthesized cell-free from pET29b-ASP14, lysines biotinylated (protein, left off: small tags and cut ends, mature S-tagged human asporin D14 synthesized cell-free from pET29b-ASP14, lysines biotinylated) DMEDTDDDDDDDDDDDDDDEDNSLFPTREPRSHFFPFDLFPMCPFGCQCYSRVVHCSDLGLTSVPTNIPFDTRMLDLQNNKIKEIKENDFKGLTSLYGLILNNNKLTKIHPKAFLTTKKLRRLYLSHNQLSEIPLNLPKSLAELRIHENKVKKIQKDTFKGMNALHVLEMSANPLDNNGIEPGAFEGVTVFHIRIAEAKLTSVPKGLPPTLLELHLDYNKISTVELEDFKRYKELQRLGLGNNKITDIENGSLANIPRVREIHLENNKLKKIPSGLPELKYLQIIFLHSNSIARVGVNDFCPTVPKMKKSLYSAISLFNNPVKYWEMQPATFRCVLSRMSVQLGNFGM", "values": [
      {"measurement": "binding to TGF-β1 (pull-down)", "setting": "TGF-β1", "value": "bound to TGF-β1 in vitro"},
      {"measurement": "binding to type II collagen", "setting": "type II collagen", "value": "bound"},
      {"measurement": "binding to type I collagen", "setting": "type I collagen", "value": "bound"}
    ]}
  ]
}
